Measurements: patent publication US20140120109A1 (Regeneron, published 2014)

T1: human TL1A, soluble, CHO-expressed, residues 72-251 of SEQ ID NO:244 with N-terminal His6-tag (human, UniProt O95150 72-251)
T1 construct: also called hTL1A; hTL1A (CHO)
T1 sequence: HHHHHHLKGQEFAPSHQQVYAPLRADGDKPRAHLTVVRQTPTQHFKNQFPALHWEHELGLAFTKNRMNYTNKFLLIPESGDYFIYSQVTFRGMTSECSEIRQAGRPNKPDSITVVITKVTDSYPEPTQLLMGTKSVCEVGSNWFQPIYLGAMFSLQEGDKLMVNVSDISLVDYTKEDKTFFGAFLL

T2: cynomolgus monkey TL1A, soluble, CHO-expressed, residues 72-251 of SEQ ID NO:248 with N-terminal His6-tag (cynomolgus monkey (Macaca fascicularis), UniProt O95150 72-251 (human entry))
T2 construct: also called MfTL1A; MfTL1A (CHO)
T2 chain: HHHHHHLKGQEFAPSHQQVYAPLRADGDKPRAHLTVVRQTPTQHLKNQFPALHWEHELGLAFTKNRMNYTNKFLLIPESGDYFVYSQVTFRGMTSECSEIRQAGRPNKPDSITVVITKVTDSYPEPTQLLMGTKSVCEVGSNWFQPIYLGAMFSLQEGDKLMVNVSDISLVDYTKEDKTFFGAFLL

T3: full length human TL1A expressed on HEK293 cells (human, UniProt O95150 1-251)
T3 construct: also called HEK293/hTL1A; cell-surface hTL1A
T3 sequence: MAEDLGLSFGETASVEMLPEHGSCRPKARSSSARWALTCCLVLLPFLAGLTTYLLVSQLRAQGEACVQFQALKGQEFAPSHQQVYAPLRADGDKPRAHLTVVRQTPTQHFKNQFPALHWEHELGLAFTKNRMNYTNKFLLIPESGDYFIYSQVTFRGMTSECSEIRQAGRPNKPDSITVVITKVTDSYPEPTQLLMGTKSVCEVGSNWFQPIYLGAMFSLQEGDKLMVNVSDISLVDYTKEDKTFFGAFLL


Tests used:
[1] = target: T1, human TL1A, soluble, CHO-expressed, …; assay: SPR 37C, mAb captured; kd set at 1e-6 1/s
Protocol: (§1) Measurements were conducted on a T100 BIACORE™ instrument. […] Kinetic association (kₐ) and dissociation (kd) rate constants were determined by fitting the data to a 1:1 binding model using BIAevaluation 4.1 curve fitting software (BIAcore Life Sciences). Molar concentrations of TL1A/Fhm used in the data fitting assumed a monomeric state for TL1A in solution. Binding dissociation equilibrium constants (KD) and dissociative half-lives (t_{1/2}) were calculated from the kinetic rate constants as: KD (M)=kd/kₐ; and t_{1/2} (min)=[In2/(60*kd)].

[2] = target: T2, cynomolgus monkey TL1A, soluble, …; assay: SPR 37C, mAb captured; kd set at 1e-6 1/s
Protocol: as §1

[3] = target: T3, full length human TL1A expressed on …; assay: flow, HEK293/hTL1A, mAb 1 ug/ml + 3 ug/ml soluble hTL1A
Protocol: (§2) Human embryonic kidney 293 cells stably transfected to over-express cell-surface hTL1A were first stained in a flow cytometric experiment with eight anti-hTL1A antibodies at four concentrations (1, 0.1, 0.01, and 0.003 μg/ml). […] The lowest antibody concentration providing significant staining levels was then used in a competition binding experiment. A negative isotype control antibody (human IgG4) was used at 1 μg/ml to define the background signal. For the competition experiment, eight antibody samples, at the minimal concentrations identified above, were first treated with soluble hTL1A expressed from CHO cells at concentrations ranging from 0.03 μg/ml to 10 μg/ml. After pre-incubation for 30 min on ice, the antibody/hTL1A mixture was added to 293/HEK-hTL1A cells that had been isolated by centrifugation in a 96-well conical plate. After incubation for an additional 10 minutes on ice, the cells were washed. The secondary reagent, anti-h Fcγ-APC F(ab′)₂, was added to all wells at a 200-fold dilution to detect bound antibodies. Samples were incubated for 15 minutes on ice, away from light, and then washed. Cells were processed on an BD™ LSR II Flow Cytometer (BD Biosciences) to detect anti-hTL1A antibodies bound to the cell surface, and data were analyzed using FlowJo software (version 8.8.6; Tree Star Inc.). Maximum signal: Anti-hTL1A antibody binding in the absence of soluble hTL1A; Minimum signal: Signal recorded when […] of isotype control antibody was added in place of the anti-hTL1A antibody. NT: Not tested.

[4] = target: T3, full length human TL1A expressed on …; assay: flow, HEK293/hTL1A, mAb 1 ug/ml, no soluble hTL1A (maximum signal)
Protocol: as §2

[5] = target: T1, human TL1A, soluble, CHO-expressed, …; assay: cell-based or functional assay
[6] = target: T3, full length human TL1A expressed on …; assay: flow, HEK293/hTL1A, mAb 0.1 ug/ml + 1 ug/ml soluble hTL1A
Protocol: as §2

[7] = target: T3, full length human TL1A expressed on …; assay: flow, HEK293/hTL1A, mAb 0.1 ug/ml + 0.3 ug/ml soluble hTL1A
Protocol: as §2

[8] = target: T3, full length human TL1A expressed on …; assay: flow, HEK293/hTL1A, mAb 0.1 ug/ml + 0.03 ug/ml soluble hTL1A
Protocol: as §2

[9] = target: T3, full length human TL1A expressed on …; assay: flow, HEK293/hTL1A, mAb 0.1 ug/ml, no soluble hTL1A (maximum signal)
Protocol: as §2

| Kd [1] [pM] | t1/2 [1] [h] | % Blocking IFN-g, D1, 1 ug/ml mAb [5] [%] | % Blocking IFN-g, D1, 3 ug/ml mAb [5] [%] | % Blocking IFN-g, D2, 1 ug/ml mAb [5] [%] | % Blocking IFN-g, D2, 3 ug/ml mAb [5] [%] | % Blocking IFN-g, D3, 1 ug/ml mAb [5] [%] | % Blocking IFN-g, D3, 3 ug/ml mAb [5] [%] | % Blocking IFN-g, D4, 1 ug/ml mAb [5] [%] | % Blocking IFN-g, D4, 3 ug/ml mAb [5] [%] | % Blocking IFN-g, D5, 1 ug/ml mAb [5] [%] | % Blocking IFN-g, D5, 3 ug/ml mAb [5] [%] | % Blocking IFN-g, D6, 1 ug/ml mAb [5] [%] | % Blocking IFN-g, D6, 3 ug/ml mAb [5] [%] | % Blocking IFN-g, D7, 1 ug/ml mAb [5] [%] | % Blocking IFN-g, D7, 3 ug/ml mAb [5] [%] | MFI [6] | MFI [7] | MFI [8] | MFI [9] | Binder | further results |
| --- | --- | --- | --- | --- | --- | --- | --- | --- | --- | --- | --- | --- | --- | --- | --- | --- | --- | --- | --- | --- | --- |
| ≤ 0.925 | ≥ 192 |  |  |  |  |  |  |  |  |  |  |  |  |  |  |  |  |  |  | H4H1818N (antibody, human IgG4 S228P, V domains shown, human IgG4(S108P) form of H2M1818N) VH: RLQLVESGGGLVKPGGSLKLSCAASGFTISDYYMSWIRQAPGKGLEWVSYIGGSGSTIYYADSVKGRFTISRDNAKNSLYLQMNSLRAEDTAVYYCAREDADSYYYYGMDVWGQGTTVTVSS VL: not shown | Kd [2]: ≤ 0.804 pM; t1/2 [2]: ≥ 192 h |
|  |  |  |  |  |  |  |  |  |  |  |  |  |  |  |  |  |  |  |  | H4H1681N (antibody, human IgG4 S228P, V domains shown) VH: EVQLLESGGGLVQPGKSLRLSCAVSGFTFSTYGMNWVRQAPGKGLEWVSSISGTGRTTYHADSVQGRFTVSRDNSKNILYLQMNSLRADDTAVYFCTKERGDYYYGVFDYWGQGTLVTVSS VL: DIQMTQSPSTLSASVGDRVTITCRASQTISSWLAWYQQTPEKAPKLLIYAASNLQSGVPSRFSGSGSGTEFTLTISSLQPDDFATYYCQQYHRSWTFGQGTKVEIT | MFI [3]: 28.5; MFI [4]: 320 |
| ≤ 13.8 | ≥ 192 |  |  |  |  |  |  |  |  |  |  |  |  |  |  |  |  |  |  | H4H1750P (antibody, human IgG4 S228P, V domains shown) VH: QVQLVESGGGVVQPGRSLRLSCVASGFTFSNYGMHWVRQAPGKGLEWVAVISYDGNNDLYSDSVKGRFTISRDNAKNALSLQMTSLRAEDTAVYYCARDSTMTPYYYHGIDVWGQGTTVTVSA VL: DIQMTQSPSSLSASVGDRVTITCRASQDIRNDLGWYQQKPGKAPKRLIYAASSLQSGVPSRFSGSGSGTDFTLTISSLQPEDFATYYCLQHNSYPPTFGQGTKVEIK |  |
|  |  |  |  |  |  |  |  |  |  |  |  |  |  |  |  |  |  |  |  | H4H1745P (antibody, human IgG4 S228P, V domains shown) VH: EVQLVESGGGLVQPGGSLRLSCAASGFTFSSYAMTWVRQAPGKGLEWVSGVSGRGGSTYYADSVKGRFTISRDNSKNTLYLQMNSLRAEDTAVYYCAYWDISSFDYWGQGTLVTVSS VL: DIQLTQSPSFLSASVGDRVTITCWASQGISTYLAWYQQKPGKTPKLLIYAASTLQSGVPSRFSGSGSGTDFTLTISSLQPEDFATYYCQQFNSYPLTFGGGTKVEIK | MFI [3]: 19.5; MFI [4]: 87.2 |
|  |  | 95 | 100 | 100 | 100 | 80 | 95 | 90 | 100 | 100 | 100 | 50 | 100 | 10 | 100 | 33.7 | 33.5 | 126 | 127 | H4H1804N (antibody, human IgG4 S228P, V domains shown, human IgG4(S108P) form of H2M1804N) VH: QVQLHQWGAGLLKPSETLSLTCAVSGVSFSDYHWAWIRQSPGKGLEWIGDINHRGRTNYNPSLKSRVTISLDTSGNPFSLKLTSVTAADTAVYYCARDFPNWVFDSWGQGILVTVSS VL: EIVLSQSPGTLSLSPGERATLSCRASQSVSSSFLAWYQQYPGQAPRLLIYGASRRATGIPDRFRGSGSGTDFTLTISRLEPEDFAVYYCQQYGSSPLTFGGGTKVENK | % Blocking IFN-g, D8, 1 ug/ml mAb [5]: 100%; % Blocking IFN-g, D8, 3 ug/ml mAb [5]: 100%; % Blocking IFN-g, D9, 1 ug/ml mAb [5]: 50%; % Blocking IFN-g, D9, 3 ug/ml mAb [5]: 100%; % Blocking IFN-g, D10, 1 ug/ml mAb [5]: 0%; % Blocking IFN-g, D10, 3 ug/ml mAb [5]: 80% |
|  |  | 90 | 95 | 100 | 100 | 70 | 95 | 85 | 100 | 45 | 90 | 80 | 80 | 60 | 90 | 29.2 | 40.7 | 207 | 211 | H4H1725P (antibody, human IgG4 S228P, V domains shown) VH: QVQLVQSGAEVKKPGASVKVSCKASGYTFTGYYMHWVRQAPGQGLEWMGWIKPKSGGTNYVQKFQGRVTMTRDTSINTAYMELNNLKSDDTAVYYCATGGSQDASDFWGQGTMVTVSS VL: DIQMTQSPSSVSASVGGRVTITCRASQDISIWLAWYQQKPGKAPNLLIYAASSLQSGVPSRFSGSGSGTDFTLTISSLQPEDFATYYCQQADSFPLTFGGGTKVEIK | % Blocking IFN-g, D8, 1 ug/ml mAb [5]: 85%; % Blocking IFN-g, D8, 3 ug/ml mAb [5]: 100%; % Blocking IFN-g, D9, 1 ug/ml mAb [5]: 50%; % Blocking IFN-g, D9, 3 ug/ml mAb [5]: 90%; % Blocking IFN-g, D10, 1 ug/ml mAb [5]: 95%; % Blocking IFN-g, D10, 3 ug/ml mAb [5]: 100% |
| ≤ 1 | ≥ 192 |  |  |  |  |  |  |  |  |  |  |  |  |  |  | 26 | 31.5 | 163 | 116 | H4H1704N (antibody, human IgG4 S228P, V domains shown, human IgG4(S108P) form of H2M1704N) VH: EVQLVESGGGLVQPGGSLRLSCAVSGFTFSSYWMSWVRQAPGKGLEWVANIKEDGSEKNYVDSVKGRFTLSSDNAKNSLYLQMNSLRAEDTAVYYCAREDYDSYYKYGMDVWGQGTAVIVSS VL: not shown | Kd [2]: ≤ 0.93 pM; t1/2 [2]: ≥ 192 h |
|  |  | 100 | 100 | 100 | 100 | 90 | 95 | 100 | 100 | 100 | 80 | 100 | 100 | 100 | 100 | 25.1 | 36.8 | 156 | 158 | H4H1805N (antibody, human IgG4 S228P, V domains shown, human IgG4(S108P) form of H2M1805N) VH: QVQLQQWGAGLLKPSETLSLTCAVYGGSFTGFYWSWIRQPPGKGLEWIGEINHRGNTNYNPSLKSRVTMSVDTSKNQFSLNMISVTAADTAMYFCASPFYDFWSGSDYWGQGTLVTVSS VL: DIMLTQTPLTSPVTLGQPASISCKSSQSLVHSDGNTYLSWLQQRPGQPPRLLFYKISNRFSGVPDRFSGSGAGTDFTLKISRVEAEDVGVYYCMQATQFPLTFGGGTKVEIK | % Blocking IFN-g, D8, 1 ug/ml mAb [5]: 100%; % Blocking IFN-g, D8, 3 ug/ml mAb [5]: 100%; % Blocking IFN-g, D9, 1 ug/ml mAb [5]: 90%; % Blocking IFN-g, D9, 3 ug/ml mAb [5]: 70%; % Blocking IFN-g, D10, 1 ug/ml mAb [5]: 100%; % Blocking IFN-g, D10, 3 ug/ml mAb [5]: 100% |
